“And” between values parts separate entries of the source, which are not always exact repeats. Identical values can stand only once.
Columns and labels:
[1] = molecular target: the molecule itself; test: mass photometry; single 60-s reading at 200 nM protein, label-free, adsorbed on glass; Buffer 1 (20 mM Tris-HCl, 50 mM NaCl, pH 7.5); stock diluted to 1 uM, then to the final concentration, measured directly after dilution; size of the oligomers
RAD52(209) [2] = molecular target: T1, RAD52(209) (human, UniProt P43351 1-209); test: mass photometry; 100 nM protein, 10 nM DNA; ring shift 40 ± 4 kDa; EMSA: 25 mM Tris-acetate, 2 mM Mg(OAc)2, 1 mM DTT, pH 7.5, 10 nM ssDNA, 25 C 10 min or 37 C 5 min; mass photometry: 20 mM Tris-HCl, 50 mM NaCl, pH 7.5; settings: protein: recombinant; tags: His-tag (pET-15b); chain copies: 11
T1 sequence: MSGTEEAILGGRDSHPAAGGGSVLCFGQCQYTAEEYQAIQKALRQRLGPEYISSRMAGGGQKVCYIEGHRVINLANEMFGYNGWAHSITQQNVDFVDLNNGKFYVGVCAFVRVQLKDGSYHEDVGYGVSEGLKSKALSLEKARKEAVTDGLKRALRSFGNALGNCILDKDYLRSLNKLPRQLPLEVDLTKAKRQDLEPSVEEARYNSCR

RAD52 full length [3] = molecular target: T2, RAD52 full length (human, UniProt P43351 1-418); test: EMSA; 37 C; Hill 3.3 ± 0.2; EMSA: 25 mM Tris-acetate, 2 mM Mg(OAc)2, 1 mM DTT, pH 7.5, 10 nM ssDNA, 25 C 10 min or 37 C 5 min; mass photometry: 20 mM Tris-HCl, 50 mM NaCl, pH 7.5; settings: protein: recombinant; tags: His-tag (pET-15b)
T2 sequence: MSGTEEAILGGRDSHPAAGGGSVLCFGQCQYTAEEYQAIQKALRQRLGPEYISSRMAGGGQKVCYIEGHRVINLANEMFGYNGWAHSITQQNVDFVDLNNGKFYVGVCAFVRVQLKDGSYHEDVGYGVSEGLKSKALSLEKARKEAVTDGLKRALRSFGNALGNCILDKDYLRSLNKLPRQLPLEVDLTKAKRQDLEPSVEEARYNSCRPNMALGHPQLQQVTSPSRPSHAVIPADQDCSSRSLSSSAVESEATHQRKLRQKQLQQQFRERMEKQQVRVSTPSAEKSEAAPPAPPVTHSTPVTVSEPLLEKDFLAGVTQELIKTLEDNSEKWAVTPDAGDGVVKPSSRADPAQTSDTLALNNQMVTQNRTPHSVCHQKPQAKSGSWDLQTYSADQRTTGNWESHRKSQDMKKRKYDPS

RAD52(209) [4] = molecular target: T1, RAD52(209); test: EMSA; 37 C; Hill 4.1 ± 0.4; EMSA: 25 mM Tris-acetate, 2 mM Mg(OAc)2, 1 mM DTT, pH 7.5, 10 nM ssDNA, 25 C 10 min or 37 C 5 min; mass photometry: 20 mM Tris-HCl, 50 mM NaCl, pH 7.5; settings: protein: recombinant; tags: His-tag (pET-15b); chain copies: 11
[5] = molecular target: the molecule itself; test: mass photometry; concentration series 10 to 200 nM protein, cumulative histograms from four measurements; Buffer 1 (20 mM Tris-HCl, 50 mM NaCl, pH 7.5); linear fits and a global fit of noncooperative (isodesmic) assembly coupled with preferential cyclization; Kd is that of a monomer associating with an oligomer of n subunits
RAD52(209) [6] = molecular target: T1, RAD52(209); test: mass photometry; 100 nM protein, 10 nM DNA; ring shift 32 ± 2 kDa; EMSA: 25 mM Tris-acetate, 2 mM Mg(OAc)2, 1 mM DTT, pH 7.5, 10 nM ssDNA, 25 C 10 min or 37 C 5 min; mass photometry: 20 mM Tris-HCl, 50 mM NaCl, pH 7.5; settings: protein: recombinant; tags: His-tag (pET-15b); chain copies: 11
RAD52(209) [7] = molecular target: T1, RAD52(209); test: EMSA; 25 C; Hill 1.6 ± 0.3; EMSA: 25 mM Tris-acetate, 2 mM Mg(OAc)2, 1 mM DTT, pH 7.5, 10 nM ssDNA, 25 C 10 min or 37 C 5 min; mass photometry: 20 mM Tris-HCl, 50 mM NaCl, pH 7.5; settings: protein: recombinant; tags: His-tag (pET-15b); chain copies: 11
RAD52 full length [8] = molecular target: T2, RAD52 full length; test: EMSA; 25 C; Hill fixed at 1; EMSA: 25 mM Tris-acetate, 2 mM Mg(OAc)2, 1 mM DTT, pH 7.5, 10 nM ssDNA, 25 C 10 min or 37 C 5 min; mass photometry: 20 mM Tris-HCl, 50 mM NaCl, pH 7.5; settings: protein: recombinant; tags: His-tag (pET-15b)
RAD52 full length [9] = molecular target: T2, RAD52 full length; test: EMSA; 25 C; Hill 1.4 ± 0.2; EMSA: 25 mM Tris-acetate, 2 mM Mg(OAc)2, 1 mM DTT, pH 7.5, 10 nM ssDNA, 25 C 10 min or 37 C 5 min; mass photometry: 20 mM Tris-HCl, 50 mM NaCl, pH 7.5; settings: protein: recombinant; tags: His-tag (pET-15b)
RAD52(209) [10] = molecular target: T1, RAD52(209); test: EMSA; 25 C; Hill 1.5 ± 0.2; EMSA: 25 mM Tris-acetate, 2 mM Mg(OAc)2, 1 mM DTT, pH 7.5, 10 nM ssDNA, 25 C 10 min or 37 C 5 min; mass photometry: 20 mM Tris-HCl, 50 mM NaCl, pH 7.5; settings: protein: recombinant; tags: His-tag (pET-15b); chain copies: 11
RAD52 full length [11] = molecular target: T2, RAD52 full length; test: EMSA; 37 C; Hill 2.7 ± 0.2; EMSA: 25 mM Tris-acetate, 2 mM Mg(OAc)2, 1 mM DTT, pH 7.5, 10 nM ssDNA, 25 C 10 min or 37 C 5 min; mass photometry: 20 mM Tris-HCl, 50 mM NaCl, pH 7.5; settings: protein: recombinant; tags: His-tag (pET-15b)
RAD52(209) [12] = molecular target: T1, RAD52(209); test: EMSA; 37 C; Hill 3.1 ± 0.5; EMSA: 25 mM Tris-acetate, 2 mM Mg(OAc)2, 1 mM DTT, pH 7.5, 10 nM ssDNA, 25 C 10 min or 37 C 5 min; mass photometry: 20 mM Tris-HCl, 50 mM NaCl, pH 7.5; settings: protein: recombinant; tags: His-tag (pET-15b); chain copies: 11

B1: RAD52(209), human RAD52 truncated after amino acid 209 (domain or fragment, UniProt P43351 1-209, looked up)
chain: MSGTEEAILGGRDSHPAAGGGSVLCFGQCQYTAEEYQAIQKALRQRLGPEYISSRMAGGGQKVCYIEGHRVINLANEMFGYNGWAHSITQQNVDFVDLNNGKFYVGVCAFVRVQLKDGSYHEDVGYGVSEGLKSKALSLEKARKEAVTDGLKRALRSFGNALGNCILDKDYLRSLNKLPRQLPLEVDLTKAKRQDLEPSVEEARYNSCR
notes: Expressed from pET-15b (plasmid a gift of S. C. West); No tag cleavage is described; The entry describes the protomer; also called C-terminally truncated RAD52; source: E. coli BL21(DE3) with pRARE, purified (Ni-NTA, size-exclusion chromatography)
With B1 the “stoichiometry N” value [1] was 11.

B2: 83 nt (ssDNA)
DNA: TTTATATAATTTACTTTATTTTCTATGTCTATTCATTTACTTATTGTGTATTATCCTTATACTTACTTACTTTATGTTTATTT
B2: binds (RAD52(209) [2]).

B3: 60 nt (ssDNA)
DNA: TCCTTTTGATAAGAGGTCATTTTTGCGGATGGCTTAGAGCTTAATTGCTTTTTTTTTTTT
B3 showed a Kd (RAD52 full length [3]) of 112.4 ± 0.1 nM and a Kd (RAD52(209) [4]) of 127 ± 10 nM.

B4: full-length human RAD52 (natural protein, UniProt P43351 1-418, looked up)
chain: MSGTEEAILGGRDSHPAAGGGSVLCFGQCQYTAEEYQAIQKALRQRLGPEYISSRMAGGGQKVCYIEGHRVINLANEMFGYNGWAHSITQQNVDFVDLNNGKFYVGVCAFVRVQLKDGSYHEDVGYGVSEGLKSKALSLEKARKEAVTDGLKRALRSFGNALGNCILDKDYLRSLNKLPRQLPLEVDLTKAKRQDLEPSVEEARYNSCRPNMALGHPQLQQVTSPSRPSHAVIPADQDCSSRSLSSSAVESEATHQRKLRQKQLQQQFRERMEKQQVRVSTPSAEKSEAAPPAPPVTHSTPVTVSEPLLEKDFLAGVTQELIKTLEDNSEKWAVTPDAGDGVVKPSSRADPAQTSDTLALNNQMVTQNRTPHSVCHQKPQAKSGSWDLQTYSADQRTTGNWESHRKSQDMKKRKYDPS
notes: RAD52, human, full length; Expressed from pET-15b (plasmid a gift of W. Kagawa); No tag cleavage is described; The entry describes the protomer; the oligomer size varies with concentration; source: E. coli BL21(DE3) with pRARE, purified (Ni-NTA, size-exclusion chromatography)
B4 was tested, and the “stoichiometry N” value [1] was 8 protomers to 12 protomers (2×) and 10, the Kd [5] was 14 ± 2 nM and the “stoichiometry N” value [5] was 10.6 protomers per ring and 7 protomers to 13 protomers (2×).

GCAATTAAGCTCTAAGCCATCCGCAAAAATGACCTCTTATCAAAAGGA (ssDNA) [48 nt unlabeled]: binds (RAD52(209) [6]).

B5: 70 nt (ssDNA)
DNA: TTTAATAATTTACTTTATTTTCTATGTCTATTCATTTACTTATTGTGTATTATCCTTATACTTACTTAC
B5 was tested, and the Kd (RAD52(209) [7]) was 109 ± 23 nM and the Kd (RAD52 full length [8]) was 53 ± 8 nM.

GCTCTAAGCCATCCGCAAAAATGACCTCTTAT (ssDNA) [32 nt] gave a Kd (RAD52 full length [9]) of 115 ± 22 nM, a Kd (RAD52(209) [10]) of 169 ± 24 nM and a Kd (RAD52 full length [11]) of 135 ± 4 nM. For the same binder, the Kd (RAD52(209) [12]) was 246 ± 33 nM.

Source: article PMC12002259, “Monomers and short oligomers of human RAD52 promote single-strand annealing” (Proceedings of the National Academy of Sciences of the …, 2023)
